The record followed here is US20250340633A1 (DIATHEVA S R L, published 2025).

The target of experiment [1] is T1, CEACAM1 antigen (Diatheva) (UniProt P13688 35-428, limits assumed).
T1 construct: Purchased antigen; also called CEA Cell Adhesion Molecule 1
T1 sequence (looked up): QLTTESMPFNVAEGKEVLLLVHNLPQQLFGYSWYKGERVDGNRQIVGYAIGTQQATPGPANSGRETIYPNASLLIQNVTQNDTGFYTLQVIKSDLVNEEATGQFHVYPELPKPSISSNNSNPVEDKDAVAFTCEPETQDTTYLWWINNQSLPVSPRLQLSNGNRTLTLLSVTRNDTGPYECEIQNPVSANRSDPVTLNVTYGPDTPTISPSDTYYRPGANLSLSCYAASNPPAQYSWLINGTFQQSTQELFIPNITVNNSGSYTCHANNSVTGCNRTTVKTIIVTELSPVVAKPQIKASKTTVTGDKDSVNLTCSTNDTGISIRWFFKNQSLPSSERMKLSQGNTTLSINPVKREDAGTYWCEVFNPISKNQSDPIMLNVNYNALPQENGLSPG
The experiment can be described thus: ELISA titration on coated CEACAM1; detection with anti-His6 and anti-mouse HRP. How it is done:
96 wells microtiter plates (MAXISORB NUNC) were coated with 100 μl/well of CEACAM1 antigen (Diatheva) solution 1 μg/ml diluted in PBS pH 7.3 and incubated overnight (ON) at 37° C. Plates were washed five times with PBS added with 0.05% (v/v) Tween 20 pH 7.3 (PBST) (the same washing procedure was repeated after each incubation step during the assays) and then blocked with 1% (w/v) BSA dissolved in PBS (150 μl/well) and maintained at 37° C. for 60 min. After washing, serial dilutions of IgG1 or IgG4 in PBS containing 2% (w/v) not-fat dry milk (PBSM) were added to the plate (100 μl/well) and incubated for 90 min at 37° C. […] Finally, the detection was performed after addition of 2,2′-azino-bis(3-ethylbenzthiazoline-6-sulphonic acid) (ABTS; Roche, 10102946001) as substrate. The absorbance values were read by a microplate reader (Bio-Rad Laboratories) at 405 nm after 45 min. In FIG. 4 are reported the results obtained with IgG1 (black line) and IgG4 (grey line) antibodies purified after transient expression in HEK293T cells. The absorbance of the mock sample is shown by the dotted line. The ELISA assay highlighted a higher affinity for the CEACAM1 antigen of the antibody belonging to the IgG1 subclass compared to the same antibody with the IgG4 (S228P) constant region. […]

In experiment [2] the target is T1, CEACAM1 antigen (Diatheva). Description: ELISA titration on coated CEACAM1; EC50 of the scFv against that of IgG4 clone 2.
Experiment [3] concerns the target T1, CEACAM1 antigen (Diatheva). The experiment can be described thus: ELISA titration on coated CEACAM1; EC50 of the scFv against that of IgG1 clone 12.
The target of experiment [4] is T1, CEACAM1 antigen (Diatheva). Description: ELISA titration on coated CEACAM1; antibody from stable clone 2. How it is done: 96 wells microtiter plates (MAXISORB NUNC) were coated with 100 μl/well of CEACAM1 antigen (Diatheva) solution 1 μg/ml diluted in PBS pH 7.3 and incubated overnight (ON) at 37° C. Plates were washed five times with PBS added with 0.05% (v/v) Tween 20 pH 7.3 (PBST) (the same washing procedure was repeated after each incubation step during the assays) and then blocked with 1% (w/v) BSA dissolved in PBS (150 μl/well) and maintained at 37° C. for 60 min. After washing, serial dilutions of IgG1 or IgG4 in PBS containing 2% (w/v) not-fat dry milk (PBSM) were added to the plate (100 μl/well) and incubated for 90 min at 37° C. After washes, plates were incubated at 37° C. for 60 min with an anti-human Fc antibody HRP conjugated (Meridian) diluted 1:500 v/v in PBSM. Finally, the detection was performed after addition of 2,2′-azino-bis(3-ethylbenzthiazoline-6-sulphonic acid) (ABTS; Roche, 10102946001) as substrate. The absorbance values were read by a microplate reader (Bio-Rad Laboratories) at 405 nm after 45 min. In FIG. […] The absorbance of the mock sample is shown by the dotted line. The ELISA assay highlighted a higher affinity for the CEACAM1 antigen of the antibody belonging to the IgG1 subclass compared to the same antibody with the IgG4 (S228P) constant region. […]

Experiment [5] deals with T1, CEACAM1 antigen (Diatheva). Description: ELISA titration on coated CEACAM1; antibody purified after transient expression in HEK293T. How it is done: Purified antibodies were analysed for their reactivity against CEACAM1 antigen in ELISA titration assay as follow:
(§1) 96 wells microtiter plates (MAXISORB NUNC) were coated with 100 μl/well of CEACAM1 antigen (Diatheva) solution 1 μg/ml diluted in PBS pH 7.3 and incubated overnight (ON) at 37° C. Plates were washed five times with PBS added with 0.05% (v/v) Tween 20 pH 7.3 (PBST) (the same washing procedure was repeated after each incubation step during the assays) and then blocked with 1% (w/v) BSA dissolved in PBS (150 μl/well) and maintained at 37° C. for 60 min. After washing, serial dilutions of IgG1 or IgG4 in PBS containing 2% (w/v) not-fat dry milk (PBSM) were added to the plate (100 μl/well) and incubated for 90 min at 37° C. After washes, plates were incubated at 37° C. for 60 min with an anti-human Fc antibody HRP conjugated (Meridian) diluted 1:500 v/v in PBSM. Finally, the detection was performed after addition of 2,2′-azino-bis(3-ethylbenzthiazoline-6-sulphonic acid) (ABTS; Roche, 10102946001) as substrate. The absorbance values were read by a microplate reader (Bio-Rad Laboratories) at 405 nm after 45 min. In FIG. 4 are reported the results obtained with IgG1 (black line) and IgG4 (grey line) antibodies purified after transient expression in HEK293T cells. The absorbance of the mock sample is shown by the dotted line. […]

In experiment [6] the target is T1, CEACAM1 antigen (Diatheva). Description: ELISA titration on coated CEACAM1; antibody from stable clone 12. As to the method: as §1

B1: scFvDIATHIS-1 (scFv, V domains shown)
VH: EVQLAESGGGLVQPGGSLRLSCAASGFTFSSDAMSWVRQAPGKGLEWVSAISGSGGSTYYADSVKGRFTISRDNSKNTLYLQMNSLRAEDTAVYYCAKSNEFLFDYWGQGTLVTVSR
VL: SELTQDPAVSVALGQTVRITCQGDSLRSSYASWYRQRPGQAPVPVIYGKNNRPSGIPDRFSGSSSGNTASLTITGAQAEDEADYYCNSSYAWLPYVVFGGGTKLTVLG
notes: Single-chain fragment described in WO2011160859A1; Detection with an anti-His6 antibody implies a His6 tag
As to B1, the EC50 in experiment [1] is 4.16 mg/L. Besides, the “fold of EC50 against IgG4” value in experiment [2] was approximately 2 fold. For the same molecule, the “fold of EC50 against IgG1” value in experiment [3] is approximately 4 fold.

B2: IgG4 (S228P) anti-CEACAM1 mAb (antibody, not shown: large carriers)
heavy: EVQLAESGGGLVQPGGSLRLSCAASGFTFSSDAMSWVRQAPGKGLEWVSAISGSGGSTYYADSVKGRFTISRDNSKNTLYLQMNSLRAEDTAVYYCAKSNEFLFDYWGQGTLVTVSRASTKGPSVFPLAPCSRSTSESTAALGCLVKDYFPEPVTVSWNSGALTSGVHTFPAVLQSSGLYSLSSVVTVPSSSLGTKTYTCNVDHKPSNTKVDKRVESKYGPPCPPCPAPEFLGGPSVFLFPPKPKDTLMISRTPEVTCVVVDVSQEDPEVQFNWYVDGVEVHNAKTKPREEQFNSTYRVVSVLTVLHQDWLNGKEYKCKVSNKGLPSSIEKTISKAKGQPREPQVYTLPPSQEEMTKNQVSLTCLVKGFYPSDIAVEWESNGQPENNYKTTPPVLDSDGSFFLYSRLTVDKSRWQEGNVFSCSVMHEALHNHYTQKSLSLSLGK
light: B1 VL
notes: also called IgG4 clone 2
Take B2: the EC50 was found to be 2.55 mg/L in experiment [4] and 26.7 mg/L in experiment [5].

B3: DIA-12.3 IgG1 (antibody)
heavy: not shown
light: SELTQDPAVSVALGQTVRITCQGDSLRSSYASWYRQRPGQAPVPVIYGKNNRPSGIPDRFSGSSSGNTASLTITGAQAEDEADYYCNSSYAWLPYVVFGGGTKLTVLGGQPKANPTVTLFPPSSEELQANKATLVCLISDFYPGAVTVAWKADGSPVKAGVETTKPSKQSNNKYAASSYLSLTPEQWKSHRSYSCQVTHEGSTVEKTVAPTECS
notes: The preparation is named under assay in each row; also called IgG1 anti-CEACAM1 mAb; IgG1 clone 12
B3: the results for the concentration giving a half-maximal response (EC50) in experiment [6] and in experiment [5] were 1.27 mg/L and 12.8 mg/L, respectively.
